Assay results published in paper PMC11984658 (Journal of structural biology, 2024).

Columns and labels:
[1] = biological target: the molecule itself; assay: SEC-MALS
[2] = biological target: the molecule itself; assay: SAXS

Protein	stoichiometry N [1] [subunits]	stoichiometry N [2] [subunits]
RAD52(1–303) (domain or fragment, human, UniProt P43351 1-303, looked up) MSGTEEAILGGRDSHPAAGGGSVLCFGQCQYTAEEYQAIQKALRQRLGPEYISSRMAGGGQKVCYIEGHRVINLANEMFGYNGWAHSITQQNVDFVDLNNGKFYVGVCAFVRVQLKDGSYHEDVGYGVSEGLKSKALSLEKARKEAVTDGLKRALRSFGNALGNCILDKDYLRSLNKLPRQLPLEVDLTKAKRQDLEPSVEEARYNSCRPNMALGHPQLQQVTSPSRPSHAVIPADQDCSSRSLSSSAVESEATHQRKLRQKQLQQQFRERMEKQQVRVSTPSAEKSEAAPPAPPVTHSTPVT	9.5	
RAD52(1–212) (domain or fragment, human, UniProt P43351 1-212, looked up) MSGTEEAILGGRDSHPAAGGGSVLCFGQCQYTAEEYQAIQKALRQRLGPEYISSRMAGGGQKVCYIEGHRVINLANEMFGYNGWAHSITQQNVDFVDLNNGKFYVGVCAFVRVQLKDGSYHEDVGYGVSEGLKSKALSLEKARKEAVTDGLKRALRSFGNALGNCILDKDYLRSLNKLPRQLPLEVDLTKAKRQDLEPSVEEARYNSCRPNM	9.7	10
